Experiments:
[1] = biological target: T1, human HER3 endogenously expressed on human cancer cells (SK-Br-3, BT-474, MCF7) (human, UniProt P21860 20-1342); test: cell-based or functional assay
[2] = biological target: T1, human HER3 endogenously expressed on …; test: cell-based or functional assay; remark: listed apart in the source
[3] = biological target: T2, HER3 D2: CD33-[Human HER3, residues 185-329]-TAG (human, UniProt P21860 185-329); test: HER3 domain binding ELISA: recombinant protein coated on the plate, antibody titrated; the y axis reads 'Fluorescence Units'
T2 construct: also called D2-Tag; domain 2; not shown: C-terminal TAG (e.g. FLAG TAG)
Protocol: (§1) All wells were then washed with PBS/0.1% Tween-20, blocked with PBS/1% BSA/0.1% Tween-20 and washed with PBS/0.1% Tween-20. Anti-HER3 antibodies were added to the relevant wells up to a final concentration of 10 μg/mL and incubated at room temperature. Plates were washed with PBS/0.1% Tween-20 prior to the addition of the appropriate peroxidase linked detection antibody diluted 1/10000 in PBS/1% BSA/0.1% Tween-20. The detection antibodies used were goat anti-mouse (Pierce, 31432), rabbit anti-goat (Pierce, 31402) and goat anti-human (Pierce, 31412). Plates were incubated at room temperature before washing with PBS/0.1% Tween-20. 100 μl TMB (3,3′,5,5′ tetramethyl benzidine) substrate solution (BioFx) was added to all wells before stopping the reaction with 50 μl 12.5% H₂SO₄. […] Where appropriate, dose response curves were analyzed using Graphpad Prism.

[4] = biological target: T3, HER3 D1-2: CD33-[Human HER3, residues 20-329]-TAG (human, UniProt P21860 20-329); test: as above
T3 construct: also called D1-2-Tag; domains 1 and 2; not shown: C-terminal TAG (e.g. FLAG TAG)
Protocol: as §1

[5] = biological target: T4, Hu HER3: CD33-[Human HER3, residues 20-640]-TAG (human, UniProt P21860 20-640); test: solution equilibrium titration (SET), IgG, ECL read-out
T4 construct: also called hu HER3-Tag; HER3-Tag; not shown: C-terminal TAG (e.g. FLAG TAG)

[6] = biological target: T5, Mu HER3: CD33-[Murine HER3, residues 20-643]-TAG (mouse, UniProt Q61526 20-643); test: as above
T5 construct: also called mu HER3-Tag; not shown: C-terminal TAG (e.g. FLAG TAG)

[7] = biological target: T6, Rat HER3: CD33-[Rat HER3, residues 20-643]-TAG (rat, UniProt Q62799 20-643); test: as above
T6 construct: also called ra HER3-Tag; not shown: C-terminal TAG (e.g. FLAG TAG)

[8] = biological target: T7, Cyno HER3: CD33-[Cyno HER3, residues 20-643]-TAG (cynomolgus monkey, UniProt G7PIG5 20-643); test: as above
T7 construct: also called cy HER3-Tag; not shown: C-terminal TAG (e.g. FLAG TAG)

[9] = biological target: T1, human HER3 endogenously expressed on …; test: cell-based or functional assay; remark: listed apart in the source
[10] = biological target: T1, human HER3 endogenously expressed on …; test: FACS titration of IgG on SK-Br-3 cells (endogenous HER3)
Protocol: The binding of antibodies to endogenous human antigen expressed on human cancer cells was accessed by FACS. In order to determine antibody EC₅₀ values SK-Br-3 cells were harvested with accutase and diluted to 1×10⁶ cells/mL in FACS buffer (PBS/3% FBS/0.2% NaN₃). 1×10⁵ cells/well were added to each well of a 96-well plate (Nunc) and centrifuged at 210 g for 5 minutes at 4° C. before removing the supernatant. Serial dilutions of test antibodies (diluted in 1:4 dilution steps with FACS buffer) were added to the pelleted cells and incubated for 1 hour on ice. The cells were washed and pelleted three times with […] FACS buffer. PE conjugated goat anti-human IgG (Jackson ImmunoResearch) diluted 1/200 with FACS buffer were added to the cells and incubated on ice for 1 hour. Additional washing steps were performed three times with 100 μL FACS buffer followed by centrifugation steps at 210 g for 5 minutes at 4° C. Finally, cells were resuspended in 200 μL FACS buffer and fluorescence values were measured with a FACSArray (BD Biosciences). The amount of cell surface bound anti-HER3 antibody was assessed by measuring the mean channel fluorescence.

| Binder | BT474 pHER3 % inhibition [1] | BT474 pHER3 IC50 [1] | MCF7 pHER3 % inhibition [1] | MCF7 pHER3 IC50 [1] | SK-Br-3 pHER3 % inhibition [1] | SK-Br-3 pHER3 IC50 [1] | MCF7 proliferation % inhibition [2] | MCF7 proliferation IC50 [2] | SK-Br-3 proliferation % inhibition [2] | SK-Br-3 proliferation IC50 [2] | Kd [5] | Kd [6] | Kd [7] | Kd [8] | BT-474 pAkt % inhibition [9] | BT-474 pAkt IC50 [9] | SK-Br-3 pAkt % inhibition [9] | SK-Br-3 pAkt IC50 [9] | EC50 [10] | other results |
| --- | --- | --- | --- | --- | --- | --- | --- | --- | --- | --- | --- | --- | --- | --- | --- | --- | --- | --- | --- | --- |
| MOR12615 (antibody, human IgG1, lambda, V domains shown, Tested as IgG) VH: QVQLVQSGAEVKKPGASVKVSCKASGYTFTSYDIHWVRQAPGQGLEWMGRIDPYSGNTNYAQKFQGRVTMTRDTSISTAYMELSRLRSEDTAVYYCARGSFYTRDSYFDVWGQGTLVTVSS VL: DIALTQPASVSGSPGQSITISCTGTSSDVGTYNQVSWYQQHPGKAPKLMIYGVSKRPSGVSNRFSGSKSGNTASLTISGLQAEDEADYYCSSRDLIGHYVFGGGTKLTVLG | 56% | 421 pM | 75% | 447 pM | 71% | 179 pM | 42% | 2540 pM | 40% | 121 pM | 0.102 nM | 0.336 nM | 0.31 nM | 0.257 nM | 63% | 466 pM | 86% | 101 pM | – | BT-474 proliferation % inhibition [2]: 35%; BT-474 proliferation IC50 [2]: 459 pM; binding result [3]: no binding (tested: 10 µg/ml); binding result [4]: no binding (tested: 10 µg/ml); MCF7 pAkt % inhibition [9]: 78%; MCF7 pAkt IC50 [9]: 815 pM |
| MOR14538 (antibody, human IgG1, lambda, V domains shown, Tested as IgG) VH: QVQLVQSGAEVKKPGASVKVSCKASGYTFTSYDIHWVRQAPGQGLEWMGRIDPYSGNTNYAQKFQGRVTMTRDTSISTAYMELSRLRSDDTAVYYCARGSFYTRDSYFDVWGQGTLVTVSS VL: QSALTQPASVSGSPGQSITISCTGTSSDVGTYNQVSWYQQHPGKAPKLMIYGVSKRPSGVSNRFSGSKSGNTASLTISGLQAEDEADYYCASADHSYHTVFGGGTKLTVLG | – | – | 83% | 615 pM | 71% | 263 pM | – | – | 53% | 81 pM | 0.045 nM | 0.023 nM | 0.051 nM | 0.026 nM | – | – | – | – | 0.279 nM | – |
| MOR14537 (antibody, human IgG1, lambda, V domains shown, Tested as IgG) VH: QVQLVQSGAEVKKPGASVKVSCKASGYTFTSYDIHWVRQAPGQGLEWMGRIDPYSGNTNYAQKFQGRVTMTRDTSISTAYMELSRLRSDDTAVYYCARGSFYTRDSYFDVWGQGTLVTVSS VL: QSALTQPASVSGSPGQSITISCTGTSSDVGTYNQVSWYQQHPGKAPKLMIYGVSKRPSGVSNRFSGSKSGNTASLTISGLQAEDEADYYCSSATQKPDVTVFGGGTKLTVLG | – | – | 73% | 200 pM | 69% | 97 pM | – | – | 48% | 47 pM | 0.21 nM | 0.22 nM | 0.285 nM | 0.14 nM | – | – | – | – | 0.179 nM | – |
| MOR12604 (antibody, V domains shown, Tested as IgG) VH: QVQLVQSGAEVKKPGSSVKVSCKASGGTFSSYAISWVRQAPGQGLEWMGLIIPRYGKARYAQKFQGRVTITADESTSTAYMELSSLRSEDTAVYYCARNWPYYYMDFWGQGTLVTVSS VL: DIVLTQSPATLSLSPGERATLSCRASQNIVFNLAWYQQKPGQAPRLLIYDASNRATGVPARFSGSGSGTDFTLTISSLEPEDFAVYYCQQKKSMPLTFGQGTKVEIKR | 62% | 142 pM | 79% | 57 pM | 71% | 29 pM | 39% | 73 pM | 42% | 15 pM | 1.1 nM | 1.9 nM | 5.2 nM | 2.2 nM | 70% | 225 pM | 85% | 17 pM | – | binding result [3]: no binding (tested: 10 µg/ml); binding result [4]: no binding (tested: 10 µg/ml); MCF7 pAkt % inhibition [9]: 74%; MCF7 pAkt IC50 [9]: 235 pM |
| MOR14534 (antibody, human IgG1, kappa, V domains shown, Tested as IgG) VH: QVQLVQSGAEVKKPGSSVKVSCKASGGTFSSYAISWVRQAPGQGLEWMGLIIPRYGKARYAQKFQGRVTITADESTSTAYMELSSLRSEDTAVYYCARNWPYYYMDFWGQGTLVTVSS VL: EIVLTQSPATLSLSPGERATLSCRASQNIVFNLAWYQQKPGQAPRLLIYDASNRATGIPARFSGSGSGTDFTLTISSLEPEDFAVYYCQQTKNRPPTFGQGTKVEIKR | – | – | 71% | 16 pM | 63% | 10 pM | – | – | 40% | 27 pM | 2.15 nM | 4 nM | 30 nM | 6.35 nM | – | – | – | – | 0.028 nM | – |
| MOR12606 (antibody, human IgG1, kappa, V domains shown, Tested as IgG) VH: QVQLVQSGAEVKKPGSSVKVSCKASGGTFSSYAISWVRQAPGQGLEWMGLIIPRYGKARYAQKFQGRVTITADESTSTAYMELSSLRSEDTAVYYCARNWPYYYMDFWGQGTLVTVSS VL: DIVLTQSPATLSLSPGERATLSCRASQNIVFNLAWYQQKPGQAPRLLIYDASNRATGVPARFSGSGSGTDFTLTISSLEPEDFAVYYCQQTKSKPSPTFGQGTKVEIKR | 73% | 108 pM | 87% | 34 pM | 75% | 25 pM | 39% | 52 pM | 36% | – | 1.5 nM | 1.4 nM | 8.1 nM | 2.6 nM | 77% | 91 pM | 85% | 8 pM | – | BT-474 proliferation % inhibition [2]: 40%; BT-474 proliferation IC50 [2]: 127 pM |
| MOR14533 (antibody, human IgG1, kappa, V domains shown, Tested as IgG) VH: QVQLVQSGAEVKKPGSSVKVSCKASGGTFSSYAISWVRQAPGQGLEWMGLIIPRYGKARYAQKFQGRVTITADESTSTAYMELSSLRSEDTAVYYCARNWPYYYMDFWGQGTLVTVSS VL: EIVLTQSPATLSLSPGERATLSCRASQNIVFNLAWYQQKPGQAPRLLIYDASNRATGIPARFSGSGSGTDFTLTISSLEPEDFAVYYCQQTKSKPSPTFGQGTKVEIKR | – | – | 67% | 50 pM | 68% | 20 pM | – | – | 46% | 26 pM | 0.64 nM | 2 nM | 9.65 nM | 2.95 nM | – | – | – | – | 0.042 nM | – |

Source: patent US20130251703A1 (Novartis, published 2013)
